In PMC6345502, “Vancomycin does not affect the enzymatic activities of purified VanSA” (PLoS ONE, 2019):
Where “and” joins values, the source holds several entries; their conditions need not be identical. Identical values can stand only once.

B2: full-length VanSA (enzyme)
chain: MVIKLKNKKNDYSKLERKLYMYIVAIVVVAIVFVLYIRSMIRGKLGDWILSILENKYDLNHLDAMKLYQYSIRNNIDIFIYVAIVISILILCRVMLSKFAKYFDEINTGIDVLIQNEDKQIELSAEMDVMEQKLNTLKRTLEKREQDAKLAEQRKNDVVMYLAHDIKTPLTSIIGYLSLLDEAPDMPVDQKAKYVHITLDKAYRLEQLIDEFFEITRYNLQTITLTKTHIDLYYMLVQMTDEFYPQLSAHGKQAVIHAPEDLTVSGDPDKLARVFNNILKNAAAYSEDNSIIDITAGLSGDVVSIEFKNTGSIPKDKLAAIFEKFYRLDNARSSDTGGAGLGLAIAKEIIVQHGGQIYAESNDNYTTFRVELPAMPDLVDKRRS
notes: VanS sensor histidine kinase of type-A vancomycin resistance in enterococci, Uniprot Q06240, full length; the construct has 392 amino acids including the C-terminal PG-6xHis tag; Membrane protein; kept in 10 mM LDAO for SEC and storage and in 9 mM C12E8 for the SPR injections; source: E. coli BL21(DE3), purified from the membrane fraction (DDM extraction, IMAC, Sephacryl S-300 in LDAO)

Assays:
[1] = biological target: T1, cytosolic domain of VanSA (enterococci, UniProt Q06240 98-384); assay: fluorescence polarisation; fluorescence anisotropy; cVanSA titrated into 40 nM fluorescein-labeled VanRA; 50 mM Tris pH 7.8, 100 mM NaCl, 5 mM MgCl2, 0.05% Tween-20; room temperature; conditions: both partners purified
T1 construct: two residues at the N-terminus contributed by the vector pETCH; VanS of type-A vancomycin resistance in enterococci, Uniprot Q06240, residues 98-384, beginning at K98 just after the second predicted transmembrane helix; also called cVanSA; Cytosolic VanSA; source: E. coli BL21(DE3), purified (IMAC, HiTrap Q, S-300)
T1 sequence: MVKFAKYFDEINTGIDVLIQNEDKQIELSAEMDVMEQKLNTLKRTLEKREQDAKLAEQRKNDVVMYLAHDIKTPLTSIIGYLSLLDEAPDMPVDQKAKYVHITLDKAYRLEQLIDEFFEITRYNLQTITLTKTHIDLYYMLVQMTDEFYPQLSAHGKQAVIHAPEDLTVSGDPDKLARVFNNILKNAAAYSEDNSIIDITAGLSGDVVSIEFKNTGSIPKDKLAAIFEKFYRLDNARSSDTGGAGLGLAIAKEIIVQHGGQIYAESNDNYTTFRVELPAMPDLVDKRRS

[2] = biological target: the molecule itself; assay: SEC; Sephacryl S-300 in 50 mM Tris pH 7.8, 500 mM NaCl, 5 mM MgCl2, 10 mM LDAO; elution compared with the 80 kDa apotransferrin standard
[3] = biological target: B2; assay: SPR; 1D4-tagged VanRA captured on Rho1D4 antibody on a GLC chip; full-length VanSA as analyte in running buffer + 9 mM C12E8; 25°C; 50 mM BIS-TRIS pH 6.0, 150 mM NaCl, 10 mM MgCl2, 0.005% Tween 20; one-site model fitted to equilibrium responses; concentrations for dimers; conditions: both partners purified
[4] = biological target: T1, cytosolic domain of VanSA; assay: SPR; 1D4-tagged VanRA captured on Rho1D4 antibody amine-coupled to a GLC chip (ProteOn XPR36); cytosolic histidine kinase as analyte; 25°C; 50 mM BIS-TRIS pH 6.0, 150 mM NaCl, 10 mM MgCl2, 0.005% Tween 20; one-site model fitted to equilibrium responses; concentrations for dimers; conditions: both partners purified
[5] = biological target: T2, Phospho-cytosolic VanSA (enterococci, UniProt Q06240 98-384, phospho-histidine at the conserved histidine (autophosphorylated; not expected to be fully phosphorylated)); assay: as above; conditions: both partners purified
T2 construct: two residues at the N-terminus contributed by the vector pETCH; VanS of type-A vancomycin resistance in enterococci, Uniprot Q06240, residues 98-384, beginning at K98; also called autophosphorylated cVanSA; phospho-cVanSA
T2 sequence: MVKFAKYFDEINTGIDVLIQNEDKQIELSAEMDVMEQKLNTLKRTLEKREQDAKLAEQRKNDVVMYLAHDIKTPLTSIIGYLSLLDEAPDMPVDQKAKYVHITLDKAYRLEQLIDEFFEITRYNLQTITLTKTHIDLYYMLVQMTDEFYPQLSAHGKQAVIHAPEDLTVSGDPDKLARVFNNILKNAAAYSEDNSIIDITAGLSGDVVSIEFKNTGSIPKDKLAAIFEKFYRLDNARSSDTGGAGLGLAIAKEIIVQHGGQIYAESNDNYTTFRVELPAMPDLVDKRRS

B1: fluorescently-labeled VanRA (natural protein, enterococci)
chain: CMSDKILIVDDEHEIADLVELYLKNENYTVFKYYTAKEALECIDKSEIDLAILDIMLPGTSGLTICQKIRDKHTYPIIMLTGKDTEVDKITGLTIGADDYITKPFRPLELIARVKAQLRRYKKFSGVKEQNENVIVHSGLVINVNTHECYLNEKQLSLTPTEFSILRILCENKGNVVSSELLFHEIWGDEYFSKSNNTITVHIRHLREKMNDTIDNPKYIKTVWGVGYKIEK
modifications: fluorescein maleimide on the cysteine introduced at the N-terminus
notes: additional cysteine at the N-terminus, introduced by site-directed mutagenesis instead of the glycine of the wild-type construct; VanR response regulator of type-A vancomycin resistance in enterococci, Uniprot Q06239; Expression and purification of the cysteine mutant are not described; After labelling it was passed over Sephacryl S-100 HR; also called fluorescein-labeled VanRA; …
Kd [1]: 200 nM and 100 to 1000 nM

B2
binding result [2]: binds

B3: 1D4-tagged VanRA (natural protein)
chain: MSDKILIVDDEHEIADLVELYLKNENYTVFKYYTAKEALECIDKSEIDLAILDIMLPGTSGLTICQKIRDKHTYPIIMLTGKDTEVDKITGLTIGADDYITKPFRPLELIARVKAQLRRYKKFSGVKEQNENVIVHSGLVINVNTHECYLNEKQLSLTPTEFSILRILCENKGNVVSSELLFHEIWGDEYFSKSNNTITVHIRHLREKMNDTIDNPKYIKTVWGVGYKIEK
notes: VanR response regulator of type-A vancomycin resistance in enterococci, Uniprot Q06239; the 1D4 tag and linker add 13 residues to the wild-type VanRA construct; Expression and purification of this tagged construct are not described; also called tagged VanRA construct; immobilized VanRA
Kd [3]: 1900 ± 700 nM | Kd [4]: 6800 ± 1400 nM | Kd [5]: 2500 ± 800 nM
